Laboratory results from article PMC13245405, “Stable inheritance of the Streptomyces linear plasmid SCP1 by dual ParABS partition systems” (Nucleic Acids Research, 2026).

What was measured:
[1] = target: T1, ParB1 (Streptomyces coelicolor, UniProt Q9AD11); experiment: isothermal titration calorimetry; assay type: binding
T1 construct: ParB1-His6, C-terminal His6 kept, pET21b, codon-optimized synthetic gene, E. coli Rosetta (BL21 DE3) pLysS; dimer

[2] = target: T2, ParB1 (Streptomyces coelicolor, UniProt Q9AD11, S110A); experiment: CTP binding test in supplement; settings: 1 mM CTP with parS1 if DSF as in methods
T2 construct: ParB1-His6, C-terminal His6 kept, pET21b, codon-optimized synthetic gene, E. coli Rosetta (BL21 DE3) pLysS; dimer
T2 sequence (Q9AD11 entry or part of it S110A): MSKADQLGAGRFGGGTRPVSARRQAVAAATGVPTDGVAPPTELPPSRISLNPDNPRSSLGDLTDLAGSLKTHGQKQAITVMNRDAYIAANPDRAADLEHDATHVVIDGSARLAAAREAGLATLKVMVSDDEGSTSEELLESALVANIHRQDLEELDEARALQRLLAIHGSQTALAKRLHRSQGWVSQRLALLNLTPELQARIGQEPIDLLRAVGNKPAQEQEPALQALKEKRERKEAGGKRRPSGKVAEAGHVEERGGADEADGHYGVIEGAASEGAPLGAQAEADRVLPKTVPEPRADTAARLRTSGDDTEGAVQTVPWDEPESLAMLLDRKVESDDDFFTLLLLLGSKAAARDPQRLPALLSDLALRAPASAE

[3] = target: T3, ParB1 (Streptomyces coelicolor, UniProt Q9AD11, N54A); experiment: CTP binding test in supplement; settings: 1 mM CTP with parS1 if DSF as in methods
T3 construct: ParB1-His6, C-terminal His6 kept, pET21b, codon-optimized synthetic gene, E. coli Rosetta (BL21 DE3) pLysS; dimer
T3 sequence (Q9AD11 entry or part of it N54A): as the sequence (Q9AD11 entry or part of it S110A) above, with N54A, A110S counted along it

[4] = target: T4, ParB2 (Streptomyces coelicolor, UniProt Q9ACT0); experiment: differential scanning fluorimetry (Tycho); assay type: binding; settings: 1 mM CTP, 4 µM ParB2 dimer, with 2 µM parS2 DNA; 100 mM Tris-HCl, 250 mM NaCl, 1 mM MgCl2, 5% glycerol, pH 8.0
T4 construct: ParB2-His6, C-terminal His6 kept, pET21b, codon-optimized synthetic gene, E. coli Rosetta (BL21 DE3) pLysS; dimer

[5] = target: T5, ParB2 (Streptomyces coelicolor, UniProt Q9ACT0, N55A); experiment: CTP binding test in supplement; settings: 1 mM CTP with parS2 if DSF as in methods
T5 construct: ParB2-His6, C-terminal His6 kept, pET21b, codon-optimized synthetic gene, E. coli Rosetta (BL21 DE3) pLysS; dimer
T5 sequence (Q9ACT0 entry or part of it N55A): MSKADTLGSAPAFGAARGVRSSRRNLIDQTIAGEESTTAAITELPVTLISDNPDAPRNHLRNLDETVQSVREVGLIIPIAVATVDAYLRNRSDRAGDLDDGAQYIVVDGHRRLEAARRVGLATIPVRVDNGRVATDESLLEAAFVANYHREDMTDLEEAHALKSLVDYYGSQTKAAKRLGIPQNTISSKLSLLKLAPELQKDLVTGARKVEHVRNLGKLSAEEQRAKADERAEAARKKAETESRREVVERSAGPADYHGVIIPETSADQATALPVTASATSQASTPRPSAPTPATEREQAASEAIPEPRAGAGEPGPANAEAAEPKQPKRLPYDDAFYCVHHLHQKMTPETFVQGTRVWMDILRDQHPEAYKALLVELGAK

[6] = target: T6, ParB2 (Streptomyces coelicolor, UniProt Q9ACT0, R57A); experiment: CTP binding test in supplement; settings: 1 mM CTP with parS2 if DSF as in methods
T6 construct: ParB2-His6, C-terminal His6 kept, pET21b, codon-optimized synthetic gene, E. coli Rosetta (BL21 DE3) pLysS; dimer
T6 sequence (Q9ACT0 entry or part of it R57A): as the sequence (Q9ACT0 entry or part of it N55A) above, with A55N, R57A counted along it

[7] = target: T7, ParB1 (Streptomyces coelicolor, UniProt Q9AD11, S109A); experiment: CTP binding test in supplement; settings: 1 mM CTP with parS1 if DSF as in methods
T7 construct: ParB1-His6, C-terminal His6 kept, pET21b, codon-optimized synthetic gene, E. coli Rosetta (BL21 DE3) pLysS; dimer
T7 sequence (Q9AD11 entry or part of it S109A): as the sequence (Q9AD11 entry or part of it S110A) above, with S109A, A110S counted along it

[8] = target: T4, ParB2; experiment: isothermal titration calorimetry; assay type: binding
[9] = target: T8, ParB1-His6 WT (Streptomyces coelicolor A3(2), plasmid SCP1) (UniProt Q9AD11); experiment: BLI; settings: 1 mM CTP; BLI: 100 mM Tris-HCl pH 8, 100 mM NaCl, 1 mM MgCl2, 0.005% Tween 20, 25 C; ParB 0.0625-2 uM (50 bp) or 1 uM (190 bp)
T8 sequence: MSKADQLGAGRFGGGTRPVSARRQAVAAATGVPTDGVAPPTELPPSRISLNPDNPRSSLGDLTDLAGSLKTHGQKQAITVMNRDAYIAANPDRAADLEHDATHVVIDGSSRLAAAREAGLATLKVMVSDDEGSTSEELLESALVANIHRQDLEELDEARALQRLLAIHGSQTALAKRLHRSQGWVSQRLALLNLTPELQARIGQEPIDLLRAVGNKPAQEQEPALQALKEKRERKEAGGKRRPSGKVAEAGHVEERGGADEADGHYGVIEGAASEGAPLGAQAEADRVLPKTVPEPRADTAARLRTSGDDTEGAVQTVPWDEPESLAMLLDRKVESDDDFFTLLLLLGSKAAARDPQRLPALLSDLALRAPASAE

[10] = target: T9, ParB2-His6 WT (Streptomyces coelicolor A3(2), plasmid SCP1) (UniProt Q9ACT0); experiment: BLI; settings: 1 mM CTP; BLI: 100 mM Tris-HCl pH 8, 100 mM NaCl, 1 mM MgCl2, 0.005% Tween 20, 25 C; ParB 0.0625-2 uM (50 bp) or 1 uM (190 bp)
T9 sequence: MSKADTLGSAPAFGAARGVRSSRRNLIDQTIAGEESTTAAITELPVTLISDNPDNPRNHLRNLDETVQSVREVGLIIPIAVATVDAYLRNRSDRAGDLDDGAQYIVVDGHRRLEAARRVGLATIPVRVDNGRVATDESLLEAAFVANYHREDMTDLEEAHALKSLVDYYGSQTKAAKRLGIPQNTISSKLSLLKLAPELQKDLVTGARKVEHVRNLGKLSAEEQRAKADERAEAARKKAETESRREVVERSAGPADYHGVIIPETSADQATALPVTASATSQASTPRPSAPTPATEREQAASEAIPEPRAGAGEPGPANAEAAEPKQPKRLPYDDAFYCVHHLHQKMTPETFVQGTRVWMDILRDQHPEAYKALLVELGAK

[11] = target: T10, ParB2-His6 WT (Streptomyces coelicolor A3(2), plasmid …, UniProt Q9ACT0 1-381); experiment: BLI; no CTP; BLI: 100 mM Tris-HCl pH 8, 100 mM NaCl, 1 mM MgCl2, 0.005% Tween 20, 25 C; ParB 0.0625-2 uM (50 bp) or 1 uM (190 bp); settings: protein: recombinant; tags: C-terminal His6; chain copies: 2; label: 5' biotin on strand 1; blunt
T10 sequence: T9 sequence

[12] = target: T11, His6-ScParB WT (Streptomyces coelicolor, UniProt Q9S6U1 1-328); experiment: as above; settings: protein: recombinant, tags: N-terminal His6, chain copies: 2, label: 5' biotin on strand 1, blunt
T11 sequence: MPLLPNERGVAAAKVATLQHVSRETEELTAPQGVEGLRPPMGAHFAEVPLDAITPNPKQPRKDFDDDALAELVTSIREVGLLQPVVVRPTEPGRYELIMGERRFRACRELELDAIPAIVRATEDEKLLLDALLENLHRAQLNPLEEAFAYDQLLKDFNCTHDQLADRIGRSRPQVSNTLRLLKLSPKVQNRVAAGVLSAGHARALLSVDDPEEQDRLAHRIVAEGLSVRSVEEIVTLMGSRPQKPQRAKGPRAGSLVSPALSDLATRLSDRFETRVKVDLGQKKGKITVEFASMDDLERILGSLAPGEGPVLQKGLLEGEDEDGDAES

[13] = target: T12, ParB1-His6 WT (Streptomyces coelicolor A3(2), plasmid …, UniProt Q9AD11 1-375); experiment: as above; settings: protein: recombinant, tags: C-terminal His6, chain copies: 2, label: 5' biotin on strand 1, blunt
T12 sequence: T8 sequence

[14] = printed strands give one G:G mismatch at site centre

In the case of `Nc1ccn([C@@H]2O[C@H](COP(=O)(O)OP(=O)(O)OP(=O)(O)O)[C@@H](O)[C@H]2O)c(=O)n1` [CTP], the Kd [1] is reported as 31.6 ± 17.8 µM, the “CTP binding test in supplement” value [2] is reported as “ParB1 N54A, S109A, and S110A or ParB2 N55A and R57A still bound CTP” and the “CTP binding test in supplement” value [3] is reported as “ParB1 N54A, S109A, and S110A or ParB2 N55A and R57A still bound CTP”. The “differential scanning fluorimetry (Tycho)” value [4] was “only when ParB1 or ParB2 was incubated with both their cognate parS site and CTP”, the “CTP binding test in supplement” value [5] was “ParB1 N54A, S109A, and S110A or ParB2 N55A and R57A still bound CTP” and the “CTP binding test in supplement” value [6] was “ParB1 N54A, S109A, and S110A or ParB2 N55A and R57A still bound CTP”. For the same molecule, the “CTP binding test in supplement” value [7] was “ParB1 N54A, S109A, and S110A or ParB2 N55A and R57A still bound CTP”.

Molecule `Nc1ccn([C@@H]2O[C@H](COP(=O)(O)OP(=O)(O)OP(O)(O)=S)[C@@H](O)[C@H]2O)c(=O)n1` [CTPγS] has a Kd [1] of 28.2 ± 5.9 µM and a Kd [8] of 12.5 ± 5.05 µM.

Molecule parS1 190-bp closed loop has a binding signal (fold BLI signal vs no CTP) [9] of 4.

For parS2 190-bp closed loop, the binding signal (fold BLI signal vs no CTP) [10] was 3.

B1: parS2 50 bp (dsDNA)
DNA 1: AGCAGGCCCCGCCGATTATCACGGCGTGATAATCCCGGAGACGTCCGCTG
DNA 2: CAGCGGACGTCTCCGGGATTATCACGCCGTGATAATCGGCGGGGCCTGCT
With B1 the Kd [11] was 0.377 ± 0.055 µM and the binding result [12] was “no binding”.

B2: scrambled parS 50 bp (dsDNA)
DNA 1: GGCCCTGGGTATTCCCTCCGGGACTCGAAGGACGAACGACGCTCGCACAT
DNA 2: ATGTGCGAGCGTCGTTCGTCCTTCGAGTCCCGGAGGGAATACCCAGGGCC
B2: no binding [11]; no binding [12]; no binding [13].

B3: ScparS 50 bp (dsDNA)
DNA 1: TCGGGGATGGTGTTTCGCGTTTCACGTGAAACAACCCCAGCGTACCGGGC
DNA 2: GCCCGGTACGCTGGGGTTGTTTCACGTGAAACGCGAAACACCATCCCCGA
For B3, the binding result [11] was “no binding”, the Kd [12] was 0.331 ± 0.064 µM and the binding result [13] was “no binding”.

B4: parS1 50 bp (dsDNA)
DNA 1: CTTCGGACGCGGCACCCTCTATTACGGCGTAATGGCCGTCTGCCTCATCC
DNA 2: GGATGAGGCAGACGGCCATTACGGCGTAATAGAGGGTGCCGCGTCCGAAG
For B4, the binding result [12, 14] was “no binding” and the Kd [13, 14] was 0.386 ± 0.042 µM.
